Data reported in US10640563B2, “Anti-B7-H3 antibodies and antibody drug conjugates” (AbbVie Inc., priority 2016, dated 2020).
Substitutions are numbered along the chain they refer to.

T1: soluble ECD of human B7-H3 (Homo sapiens, UniProt Q5ZPR3)
T1 construct: His tag (6xHis) (C); made in house
T1 sequence (Q5ZPR3 with tags, fused parts or gaps): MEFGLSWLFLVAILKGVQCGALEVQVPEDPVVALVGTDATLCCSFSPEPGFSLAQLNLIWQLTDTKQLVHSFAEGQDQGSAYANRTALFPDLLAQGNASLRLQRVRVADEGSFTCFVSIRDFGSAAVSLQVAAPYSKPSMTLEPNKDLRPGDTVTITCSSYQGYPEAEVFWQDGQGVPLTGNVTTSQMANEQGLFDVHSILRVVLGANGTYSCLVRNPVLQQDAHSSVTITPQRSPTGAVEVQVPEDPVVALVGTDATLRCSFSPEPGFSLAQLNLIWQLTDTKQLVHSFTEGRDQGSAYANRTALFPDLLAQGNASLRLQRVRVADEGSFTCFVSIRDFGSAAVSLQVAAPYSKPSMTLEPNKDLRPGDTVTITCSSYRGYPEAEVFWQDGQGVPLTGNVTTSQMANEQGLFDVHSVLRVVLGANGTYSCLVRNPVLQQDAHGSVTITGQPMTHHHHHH

B1: huAb18v1-CZ (conjugate)
VH: EVQLVQSGAEVKKPGSSVKVSCKASGYSFTSYTIHWVRQAPGQGLEWMGYINPNSRNTDYNQKFKDRVTITADKSTSTAYMELSSLRSEDTAVYYCARYSGSTPYWYFDVWGQGTTVTVSS
VL: DIQLTQSPSFLSASVGDRVTITCRASSSVSYMNWYQQKPGKAPKLLIYATSNLASGVPSRFSGSGSGTEFTLTISSLQPEDFATYYCQQWSSNPLTFGQGTKLEIK
B2: huAb18v10-CZ (conjugate)
VH: B1 VH with N61A, K65Q, D66G, I70L
VL: B1 VL with L45P, L46W, G63V, F70H
B3: huAb18v3-CZ (conjugate)
VH: B1 VH with M48I, V68T, I70L, K74R
VL: B1 VL with A42S, L45P, L46W, G63V, G65V, F70H
B4: huAb18v8-CZ (conjugate)
VH: B1 VH with M48I, V68T, I70L, K74R
VL: B1 VL with L45P, L46W, G63V, F70H
B5: huAb18v5-CZ (conjugate)
VH: B1 VH
VL: EIVLTQSPDFQSVTPKEKVTITCRASSSVSYMNWYQQKPDQSPKLLIKATSNLASGVPSRFSGSGSGTDFTLTINSLEAEDAATYYCQQWSSNPLTFGQGTKLEIK
B6: huAb18v2-CZ (conjugate)
VH: B1 VH with N61A, K65Q, D66G, I70L
VL: B1 VL
B7: huAb18v4-CZ (conjugate)
VH: B1 VH with N61A, K65Q, D66G, I70L
VL: B1 VL with A42S, L45P, L46W, G63V, G65V, F70H
B8: Ab13 (antibody, V domains shown)
VH: DVQLQESGPDLVKPSQSLSLTCTVTGYSITSGYSWHWIRQFPGNKLEWMGYIHSSGSTNYNPSLKSRISINRDTSKNQFFLQLNSVTTEDTATYYCAGYDDYFEYWGQGTTLTVSS
VL: DIVMTQSQKFMSTSVGDRVSVTCKASQNVGFNVAWYQQKPGQSPKALIYSASYRYSGVPDRFTGSGSGTDFTLTISNVQSEDLAEYFCQQYNSYPFTFGSGTKLEIK
B9: huAb3v3-CZ (conjugate)
VH: EVQLVQSGAEVKKPGSSVKVSCKASGYTFSSYWMHWVRQAPGQGLEWIGLIHPDSGSTNYNEMFKNRATLTVDRSTSTAYVELSSLRSEDTAVYFCAGGGRLYFDYWGQGTTVTVSS
VL: DVVMTQSPLSLPVTPGEPASISCRSSQSLVHSNGDTYLRWYLQKPGQSPQLLIYKVSNRFSGVPDRFSGSGSGTDFTLKISRVEAEDVGVYFCSQSTHVPYTFGGGTKVEIK
B10: huAb3v5-CZ (conjugate)
VH: B9 VH with V81M, F95Y
VL: B9 VL with F92Y
B11: huAb3v1-CZ (conjugate)
VH: B9 VH with I48M, A68V, L70I, V72A, R74K, V81M, F95Y, G98R
VL: B9 VL with V2I, F92Y
B12: Ab10 (antibody, V domains shown)
VH: DVQLQESGPGLVKPSQSLSLTCTVTGYSITSDYAWNWIRQFPGNRLEWMGHINYSGITNYNPSLKSRISITRDTSKNQFFLQLYSVTTEDTATYFCARRSLFYYYGSSLYAMDYWGQGTSVTVSS
VL: DVVMTQSPFSLPVSLGDQASISCRSSQSLVHSNGNTYLHWYLQKPGQSPKLLIYKVSNRFSGVPDRFSGSGSGTDFTLKISRVEAEDLGVYFCSQSTHVPWTFGGGTKLEIK
B13: Ab2 (antibody, V domains shown)
VH: QVQLQQPGAELVKPGASVKLSCKASGYTFTSYWMHWVKQRPGQGLEWIGMIHPDSGTTNYNEKFRSKATLTVDKSSSTAYMQLSSLTSEDSAVYYCAVYYGSTYWYFDVWGTGTTVTVSS
VL: B12 VL with S7T, F9L, S20Y, S32I, L42R, V99F, W101F, G105S
B14: Ab17 (antibody, V domains shown)
VH: EVKLVESGGGLVQPGGSLKLSCAASGFTFSSYIMSWVRQTPEKRLEWVASIVSSNITYYPDSMKGRFTISRDNARNILYLQMSSLKSEDTAMYYCARSGTRAWFAYWGQGTLVTVSA
VL: DIVLTQSPASLAVSLGQRATISCRASKSVSTSAYSYMHWYQQKPGQPPKLLIYLASNLESGVPARFSGSGSGTDFTLNIHPVEEEDAATYYCQHSRELPYTFGGGTKLEIK
B15: Ab14 (antibody, V domains shown)
VH: EVKLVESGGGLVKPGGSLKLSCAASGFTFSSYGMSWVRQTPEKRLEWVATISGGGTNTYYPDSVEGRFTISRDNAKNFLYLQMSSLRSEDTALYYCARHYGSQTMDYWGQGTSVTVSS
VL: DIQMTQSPASLSASVGETVTITCRTSGNIHNYLTWYQQKQGKSPQLLVYNAKTLADGVPSRFSGSGSGTQFSLKINSLQPEDFGSYYCQHFWSIMWTFGGGTKLEIK
B16: Ab16 (antibody, V domains shown)
VH: EVKLLESGGGLVQPGGSLKLSCAASGFDFSRYWMSWVRQAPGKGLEWIGEINPDSSTINYTPSLKDKFIISRDNAKNTLYLQMSKVRSEDTALYYCARPGFGNYIYAMDYWGQGTSVTVSS
VL: DIQMTQTTSSLSASLGDRVTINCRASQDISNFLNWYQQKPDGTVKLLIYYTSRLYLGVPSRFSGSGSGTDYSLTISNLEQEDIATYFCQQGNTLPPTFGGGTKLEIK

Tests used:
NCI-H146 cells = assay: In vivo xenograft model of small cell lung cancer (NCI-H146); parameters: species or system mice; details: Table 11; 6 mg/kg/IP/QDx1
HCC38 cell line = assay: Cell cytotoxicity of ADCs in HCC38 cell line; assay type: cell-based; details: CZ conjugates
Description: The humanization of chAb18 generated 10 variants (described above in Table 9) that retained binding to human and cyno B7-H3 as assessed by FACS (the method of which is described above in Example 6). These variants were further characterized for binding by SPR and were successfully conjugated to the Bcl-xL inhibitor synthon CZ using Method A (described above) and assessed for cell cytotoxicity as described in Example 7. The parental chAb18 from which the variants were derived was also tested as a comparator. All humanized variants had similar binding properties as assessed by biacore, and retained binding activity to cell surface expressed as conjugates with the CZ synthon. The cytotoxicity of all of the variants as CZ synthons were similar to the chAb18 from which they were derived.
Humanized chAb18 variants were conjugated to the CZ synthon and tested for cytotoxicity in HCC38 cell line.

[1] = Aggregation of conjugates by SEC; assay type: physicochemical
[2] = system: soluble ECD of cyno B7-H3; assay: Biacore T200 SPR binding kinetics, mAb capture; parameters: species or system cynomolgus monkey; details: Biacore T200, Fc capture of mAb, B7-H3 ECD as analyte, 1:1 binding model
[3] = target: T1, soluble ECD of human B7-H3; assay: Biacore T200 SPR binding kinetics, mAb capture; details: Biacore T200, Fc capture of mAb, B7-H3 ECD as analyte, 1:1 binding model
Description: The binding affinity of the purified anti-B7-H3 monoclonal antibodies was determined by surface […]. […] The binding kinetics were derived from SPR measurements using a Biacore T200 instrument and a mAb capture approach (as described in the materials and methods below).
Biacore T200 SPR instruments were used to measure the binding kinetics of human B7-H3 (analyte) binding to various mAbs (ligands). The assay format was Fc-based capture via immobilized anti-mouse (Fc) (Pierce 31170) or immobilized anti-human (Fc) (Pierce 31125). A standard amine coupling protocol was employed to immobilize the capture reagents via primary amines to the carboxy-methyl (CM) dextran surface of CM5 sensorchips (Biacore); capture antibodies were coupled to a level of approximately 5000 RU. For binding kinetic measurements the assay buffer was HBS-EP+ (Biacore): 10 mM Hepes, pH7.4, 150 mM NaCl, 3 mM EDTA, 0.05% polysorbate 20. During the assay, all measurements were referenced against the capture surface alone. Each assay cycle consisted of the following steps: 1) Capture of ligand to approximately 50 RU; 2) Analyte injection over both reference and test surface, 240 μL at 80 μL/min, after which the dissociation was monitored for 900 seconds at 80 μL/min; 3) Regeneration of capture surface with low pH glycine. For kinetic determinations analyte injections were 3-point, 9-fold dilution series of 900 nM, 100 nM and 11.11 nM, buffer only injections were included for secondary referencing. Data were processed and fit to a 1:1 binding model using Biacore T200 Evaluation Software to determine the binding kinetic rate constants, ka (on-rate) and kd (off-rate), and the equilibrium dissociation constant (affinity, KD).

[4] = Table 10, CZ conjugates of Ab18 variants
[5] = Table 14, CZ conjugates of Ab3 variants

Chain of soluble ECD of cyno B7-H3 (as listed by the source): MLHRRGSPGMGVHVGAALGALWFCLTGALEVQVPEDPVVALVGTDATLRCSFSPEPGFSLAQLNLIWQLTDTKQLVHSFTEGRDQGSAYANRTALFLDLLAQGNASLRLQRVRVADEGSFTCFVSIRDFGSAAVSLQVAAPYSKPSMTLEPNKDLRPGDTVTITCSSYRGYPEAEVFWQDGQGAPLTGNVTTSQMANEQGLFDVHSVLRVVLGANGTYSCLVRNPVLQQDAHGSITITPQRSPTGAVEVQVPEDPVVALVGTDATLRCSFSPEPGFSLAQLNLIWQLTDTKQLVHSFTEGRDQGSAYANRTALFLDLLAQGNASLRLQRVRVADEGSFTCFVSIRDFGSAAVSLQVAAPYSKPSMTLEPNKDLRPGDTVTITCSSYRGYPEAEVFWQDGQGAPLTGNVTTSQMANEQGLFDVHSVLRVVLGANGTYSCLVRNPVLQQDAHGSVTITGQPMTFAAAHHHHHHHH

Molecule	IC50 (HCC38 cell line; Table 10)	% agg by SEC [1, 4]	cynoB7-H3 ka [2]	cynoB7-H3 kd [2]	huB7-H3 ka [3]	huB7-H3 kd [3]	also measured
B1	0.39 nM	3.3%	–	–	–	–	TGD (%) (NCI-H146 cells): 45%; TGImax (%) (NCI-H146 cells): 79%
B2	–	3.2%	–	–	–	–	–
B3	0.32 nM	3.6%	–	–	–	–	TGD (%) (NCI-H146 cells): 39%; TGImax (%) (NCI-H146 cells): 81%
B4	1.3 nM	3.5%	–	–	–	–	–
B5	0.12 nM	4.2%	–	–	–	–	–
B6	–	3.3%	–	–	–	–	–
B7	0.29 nM	5.5%	–	–	–	–	TGD (%) (NCI-H146 cells): 48%; TGImax (%) (NCI-H146 cells): 85%
B8	–	–	440000 M⁻¹ s⁻¹	0.0037 s⁻¹	330000 M⁻¹ s⁻¹	0.0058 s⁻¹	–
B9	–	–	–	–	–	–	IC50 (HCC38 cell line; Table 14): 9.22 nM; % agg by SEC [1, 5]: 2.5%
B10	–	–	–	–	–	–	IC50 (HCC38 cell line; Table 14): 0.17 nM; % agg by SEC [1, 5]: 5.9%
B11	–	–	–	–	–	–	IC50 (HCC38 cell line; Table 14): 0.53 nM; % agg by SEC [1, 5]: 3.3%
B12	–	–	200000 M⁻¹ s⁻¹	0.0042 s⁻¹	41000 M⁻¹ s⁻¹	0.00019 s⁻¹	–
B13	–	–	230000 M⁻¹ s⁻¹	0.011 s⁻¹	120000 M⁻¹ s⁻¹	0.0029 s⁻¹	–
B14	–	–	510000 M⁻¹ s⁻¹	1e-05 s⁻¹	540000 M⁻¹ s⁻¹	1.9e-05 s⁻¹	–
B15	–	–	690000 M⁻¹ s⁻¹	0.003 s⁻¹	110000 M⁻¹ s⁻¹	0.0014 s⁻¹	–
B16	–	–	750000 M⁻¹ s⁻¹	0.0056 s⁻¹	140000 M⁻¹ s⁻¹	0.0032 s⁻¹	–
